Literature values, collected in paper PMC2667909.

Target: Histone H3 peptide (H3K27me3) (Drosophila melanogaster) (UniProt P02299)

Kd: 5 µM
Substance: Polycomb (Pc) chromodomain (from UniProt P26017)
